Assay results as given in publication PMC3740164 (Developmental cell, 2013).

Biological target: full-length His6-PIPKIγi5 (human, UniProt O60331-3 1-707)
Experiment: pull-down

- binding result: binds
B1: GST-SNX5 (natural protein, UniProt Q9Y5X3 1-404, looked up)
chain: MAAVPELLQQQEEDRSKLRSVSVDLNVDPSLQIDIPDALSERDKVKFTVHTKTTLPTFQSPEFSVTRQHEDFVWLHDTLIETTDYAGLIIPPAPTKPDFDGPREKMQKLGEGEGSMTKEEFAKMKQELEAEYLAVFKKTVSSHEVFLQRLSSHPVLSKDRNFHVFLEYDQDLSVRRKNTKEMFGGFFKSVVKSADEVLFTGVKEVDDFFEQEKNFLINYYNRIKDSCVKADKMTRSHKNVADDYIHTAACLHSLALEEPTVIKKYLLKVAELFEKLRKVEGRVSSDEDLKLTELLRYYMLNIEAAKDLLYRRTKALIDYENSNKALDKARLKSKDVKLAEAHQQECCQKFEQLSESAKEELINFKRKRVAAFRKNLIEMSELEIKHARNNVSLLQSCIDLFKNN
